In the DeepSol protein solubility set:

Experiment: soluble on expression in E. coli; label from the status in PepcDB or PDB records

| Sequence | soluble on expression in E. coli |
| --- | --- |
| MSLRRARIAFASIDYTGDAWRHIPSVIGEMFAGIGEHAWRRDAVLEIVGVEDEEAEGYLRRVAERRPVDGLLLRVANDIRGEHLDILERAGMPYVLIKRHIPGRRMNCVISDDVTGARMATSHLLELGHRRIGFVCGKPHLTLNRERLAGYREALEEHGVGFDEGLVRQEEHFTTEMGYRAVRSLLEAPSRPSAVFVASDTMAIGGYEAVWDLGLRIPDDVSIVGYDDIQAASALQPPLTTVRTSYYDFGRLAAQLLLDLIEGREVAPQRRVIHPTLVVRGSTREGHHHHHH | soluble |
| MSLRSAKHHFGAATSRGTRPSNEDTYQAGVIDIPAFAKRPPASLTIRNRSARVAGLRENRGADSASGDPQVFYFGIFDGHGGSECSTFMKETLHEYIQDTAAEFELQSSLRKAGENSASPDAESELPIRQGSNVARVQRLEKSLVQSWRNLVGGYFRRFVPPNFSHLAKHTAEESSSVPENNKGVTIEEILEYAFLRADLDFVSAQASREDDELSNVCRPLYQDDILYGPSRSQSLNIAGLRRFKGGSTASTVMISTPTPAPFWHPASPSSLLVSHVGDTRMLLCSTVTGEAIPLTSNHHPSSPIEANRLRRYAATFVTDSFGEERISGLANTRAFGDVQSKRIGVSAEPELRRFEIAPAEYSFLVLMSDGISEALTDQEVVDIIKEAKTPDEGARHVVNFATEVTRTGDNATCLVVRLGGWEREGHHHHHH | not soluble |
| MSLRSEVKAEDTWRLEDIFPSDEAWNKEFQAVKELIPNLSKYKGKLADSADHLYEALTYQDKVMERLGRLYTYAHMRSDQDTGNSFYQGLNDKAGNLYTQAESATAYLVPEILSIEEDKLQQFILEKEELKLYSHAIEEITKERPHVLSEKEEALLAEASEVLGSSSNTFSVLNNADITFPSIKDEDGNEKQITHGNFINFLESENREVRKNAFDAVYKTYGQYKNTMATTLSGTVKKDNFYARVKKYKSAREAALSNNSIPEEVYDNLVKTINKHLPLLHRYIALRKKVLELDEVHIYDLYTPLVKDAGMKVTYEEAKDYMLKGLAPLGEEYASILKEGLENRWVDVYENKGKRNGAYSSGAYGTNPYILMNWHNNVNNLFTLVHEFGHSVHSYYTRKHQPYPYGNYSIFVAEVASTTNEALLGEYLLNNLEDEKQRLYILNHMLEGFRGTVFRQTMFAEFEHLIHTKAQEGEPLTPELLTNVYYDLNKKYFGDGMVIDKEIGLEWSRIPHFYYNYYVYQYATGYSAAQALSSQILKEGKPAVDRYIDFLKAGSSQYPIDVLKKAGVDMTSPEPIEAACKMFEEKLDEMEELLMKVKEGHHHHHH | soluble |
| MSLRSMFMYKSHIPEDCEEEAQITAAKLILLVDDDPVFRRMTKGYLQKYGYQVIEAENGLDGLRKLRDHEPDLILCDLSMPVLNGIEFVEEVSSSYPSLPLVVVSATEEMADVAKALRFGIKDFLPKPITNHSHLASAIEKVLANDDHQRDFASCWYGADRQGSIPEEQELHWHLQYLKDNPNAAKELLEALLPEKDSQLGSWKCSYRLLQSAELMPLVFDYAWLMNGQFVFYVVDAASHRECGAASTLLVRALFHDYLRNLRNFSVELKDLAEIIERGIHCSECIGKVSALFGVADLADGTLSLLPAGLDCQWSNGYVHNRITSGVQLGDNSLRNFITKDLPIRAACQISLSKPSAYSFTLDLYQGEGHHHHHH | soluble |
| MSLRTGKTNVIALVLSVDEELMGFTSQMVFGITEVLSTTQYHLVVTPHIHAKDSMVPIRYILETGSADGVIISKIEPNDPRVRFMTERNMPFVTHGRSDMGIEHAFHDFDNEAYAYEAVERLAQCGRKRIAVIVPPSRFSFHDHARKGFNRGIRDFGLTEFPIDAVTIETPLEKIRDFGQRLMQSSDRPDGIVSISGSSTIALVAGFEAAGVKIGEDVDIVSKQSAEFLNWIKPQIHTVNEDIKLAGRELAKALLARINGEAAETLQSISGPVWSSMAPKEGHHHHHH | soluble |
| MSLRTTDDLPNALPPALESMTLLVAAVIVHDQATNRVVLLQRSENAKFAQGMWDLPVGKSEPGEPITETAVRELHEETGLTVKPEALMVAHIIHGSWGVEAPNGFLTVVFATHEWTGEPENREPRKHSQVRWVDADAIPEECVDTTASALHHYLSGGAQVSLDGWLPKEGHHHHHH | soluble |
| MSLRTVLITGTTSGIGYALSELFAKKECHVILVSRNAMKLSAQKQKLENGNNRIDTITCDLEQTNAAEIIYKSIKQNGWQVDILVNNAGFNEAGLFSETDATCEQGMINLHINFVTDMMKLFIPEMIQNSHGHILNVGSTGSYIACPKDAVYAASKAYILHLSKAVHAELKGTGVTVTTLCPGSTRTEFAHKAKIEHTLLFKIFVMSPHKVALSGLRAMEKGKSVIIPGLYNKILVLCSRLLPYSFIGWMTKKMLEGHHHHHH | not soluble |
| MSLRYDRAGDQHYDVASALIKSMRGSDVDAALHYLARMVEAGEDPRFIARRIVIAAAEDVGMADPSALQTAVAAMHAVAQIGMPEARIVLAQAVVHNATAPKSNAAYAGINAAIADVRAGLGGSVPAHLRDAHYAGAGKLGHGKGYVYTHDVPAGVAEQQYAPDELVGKDYYVPTDRGFENQLRERLARLRRVLRGREGHHHHHH | soluble |
| MSLSALLNYKLEGSGETVVLIHGLFGSLDNLGLLARDLKNDHQVLSLDLRNHGLSFHSDEHNYALMAQDVNQLLEHLNLTSVVVIGHSMGGKVAMKLADIAAEKVRQLVVLDMSPVAYSQRRHDNVFAGLEAVLVQKPTSRSEVMAILAQHIEQEGVRQFLGKSLMSEQNVMTWRFNVAALKAHYAEILGWDIIAKCRIPTLFIKGADSDYLTTQHQPMVQAQFSQAKAHVIANTGHWLHAEKPAEVIRAIRKFIDVPVEGHHHHHH | soluble |
| MSLSAPKQWQVGIVGYGEVGKILAEDLRAQGVKVAAYDVKLADDRGGPLREHASRHDVALTTSHAELAARSDFIISAVTASQTVAVAEACAGAINQGTWFLDFNSASPGAKQRAASLIDGAQGRYVEGAVMTSVPPYRIKVPLLLGGAYAAELAPLINTLGFAAKPASDQLGVASATKMCRSIMIKGLEAMVIESFTTARAYGVEDAVIASLQETFPQIDWEKQGAYFFQRVIAHGRRRAEEVREVAETVREAGLTPWSAQGTAERQAWVADLADEGLFGTRGASGFARSPDWRTEADRILAKVKDETKTEGHHHHHH | not soluble |
| MSLSAPLPLCVIGAGCVGMRHVEVARRSPQIRLTAVVEPVETRRRALAESGLVAVATLEEVPRETRAAIVATPTPDHLATGLAALSRGWAVLVEKPTAGTMDDARVLLGAADRAGLPLYVGHHRRCHPFSRAAREALGGIGDLVGLQGLWSLRKHDSYYAEDWRRQAGAGPLMTNLSHEIDLLRFLVGDMVEVSALTSSARRGLVVPDTAALAFRFADGALGSFLISDAGASPWSFEAACAENPAIAVSGQDYIRITGTAGALEFPSLTRWGRSAPGEIEWSKPLARAAGAGFARVDPLLEQINRFAAVLEGAQDDVLCTGTDGNAALEMTLAAALSGKLGRPVRAHEVPGDYSGEGHHHHHH | soluble |
| MSLSDILILTHAEFCPPGHLATVLAQRGLDFRVVRADLGQLAGLDAERPRAVAIMGGPMSVNDDLPWLGDELALLRRFIERRIPLLGHCLGGQLLARVLGATVRQQPYTEMGWQPMQRESRDSPWLAHLPERFAIFQWHGDAFDLPQGAERLLSSAWCENQAFSWGGHVLGLQGHPEMTEELVRRWIDGWPQLLDSSQPSQQSREAMLADLPLKVAALNRVAEGFYRHWLSLLREGHHHHHH | not soluble |
| MSLSDINNMAYGISDMLGSIDNLAMFDLVVPHFRGKENECLFGMFGRATTTLQGGKIAKHVQEIFAETLTAHLHKLEPGEEPSEALRRTFLWGDRKAFEFFSGKLQLEKERKPSWTSFASFDSMFRGWTPGVNSVLRTGASGAVVYLVDKVLHVGSIGDTLVVLSRKGDAELLSKRHDPTDREESARIRKAEAWVSTKGFVNDDKDLDISRAFGYWHECPAVNAAPEIRTRRLQESDEFVIIGNHALWQFCSYQTAVDIARTERDDPMIAAQKLRDFAISYGAEGNVMVMVVNVSDLFLGKEGHHHHHH | not soluble |
| MSLSEGTFEVGKNTFLLNGEPFVVKAAEIHYPRIPKEYWEHRIKMCKALGMNTICLYVFWNFHEPEEGRYDFAGQKDIAAFCRLAQENGMYVIVRPGPYVCAEWEMGGLPWWLLKKKDIKLREQDPYYMERVKLFLNEVGKQLADLQISKGGNIIMVQVENEYGAFGIDKPYISEIRDMVKQAGFTGVPLFQCDWNSNFENNALDDLLWTINFGTGANIDEQFKRLKELRPDTPLMCSEFWSGWFDHWGAKHETRSAEELVKGMKEMLDRNISFSLYMTHGGTSFGHWGGANFPNFSPTCTSYDYDAPINESGKVTPKYLEVRNLLGNYLPEGETLPEIPDSIPTIAIPTIKMTEMAVLFDNLPHPKESEDIRTMEAFDQGWGSILYRTSLSASDKEQTLLITEAHDWAQVFLNGKKLATLSRLKGEGVVKLPPLKEGDRLDILVEAMGRMNFGKGIYDWKGITEKVELQSDKGVELVKDWQVYTIPVDYSFARDKQYKQQENAENQPAYYRSTFNLNELGDTFLNMMNWSKGMVWVNGHAIGRYWEIGPQQTLYVPGCWLKKGENEIIILDMAGPSKAETEGLRQPILDVQRGNGAYAHRKMGEGHHHHHH | soluble |
| MSLSENIAAYVGLDVHKETLAVAIAAPERLGEVRYYGTINNEAQAVRRLFQKLQGLYGNILSCYEAGPCGFGLYHQLTAMNIKCQVIAPSRIPKSPTDRIKNDHRDAISLARLLRAGELTPVWIPDLTHEAMRDLIRARAAAKRDSRVARQRILSMLLRTDKHYAGKHWTGKHRTWLANQSFSQPSQQIAFQHYCQSLEQIEDRILQLDQEISRLLPEWSLCNLVCQLQALKGVGQLIAITLVAELGDFSRFSNPKQLMAFLGLVPGEYSSGNSIRPRGITKVGNSELRRLLYEAAWSYRTPAKVGAWLIYYRPDSVTQYSKDIAWKAQQRLCSRYRSLTAKGKKSQVAITAVARELTGFMWDIALAEGHHHHHH | not soluble |
| MSLSEPSVQADTRLNALIVQDIPERMPIYRALIEQLDVPSTLIEIEAMIVDVNTDLVNELGVTWGAQIGTTSLGYGDLGLRPGNGLPVDGAAAELAPGTLGISVSTRLAARLRALESDGQANILSQPSILTADNLGAMIDLSDTFYIRTLGERVATVTPVTVGTSLRVTPRYIAAKGGRQVELAIDIEDGRVLQEYPIDGLPRVRKSSISTLAVVGDEQTLLIGGYNNRRDEEQVEKVPLLGDIPGLGFLFSSKSRAVQRRERLFLIRPRVVAIEGKPVFSPVAGTSQVFMSTEGHHHHHH | soluble |
| MSLSEVQPIPVTVSQYSYYSDKNYPKRRTMEDAHVICDPLIEVEGRVYSLYAIFDGHRGRTAAQHCAKIVKDKIKEVLQRKDEGFEEMMQDAMYEMDMSLKENGIEYSGCCALMCIIEIKDKKRIIHMANCGDSCGIIIGTNEVIPMSEEHKATNENEAKRIKESGGMIINGRVSGDVAVTRGLGDHHLKQWVVSEPFVKEVEWQEDYKYIVLGCDGLWDTLNGNQIKEVLESNNCEFTSSAKSLTQLAIGKGSTDNITTIVLKLEGHHHHHH | soluble |
| MSLSFKDAVRKRPGMYFGDIDHNAVNHVIYELVANVVDLFLAGRATTLKVDVSECEIIVIDDGPGFPFPVEDSAHNLVERYLTHHHDKPTADDHAPHIHVLGGGLGLAAVNAVSEKLTIESSNGAWRWRQVFGKGDVLAPLESFRYDGPSGSSIKFTLDPSVFHNRLPDFFQLRKAMFELAHLYSGLIVEFDGERYVSKQGLMELAYLMWSGEGHHHHHH | not soluble |
| MSLSGEPYNFEYTFSKSHDIGVSLTIGKRNYMEDEVLIAGNIKEGIDLVGIFDGHNGSDAAKLAAKLFKEEIKHLEEEFDWITLFEKVHSTIIKSTESGTTATLALIYSNKITLVHCGDSTAFALKKRKLKKLTHDQNTSSLEEVSSIKKNGGVVEFNGGILRVNGQISVTRSLGDKKFHPPLTCIPEVIELESDDITSLVLTSDGISSVLQLDEIEAVMNSEMNVEEKSSTLRNQSFIREGKDNMSVIVVSFNEGHHHHHH | soluble |
